Measured values as given in publication doi:10.1101/2025.06.11.659212 (bioRxiv, 2025).

Target: the molecule itself
Assay: cryo-EM structure

Protein	stoichiometry N
cyanide dihydratase from Bacillus safensis strain PER-URP-08 (enzyme, UniProt P0DXY3 1-330, looked up) MTSIYPKFRAAAVQAAPVYLNLEATVEKSCELIDEAASNGAKLVAFPEAFLPGYPWFAFIGHPEYTRKFYHELYKNAVEIPSLAIQKISEAAKRNETYVCISCSEKDGGSLYLAQLWFNPNGDLIGKHRKMRASVAERLIWGDGSGSMMPVFQTDIGNLGGLMCWEHQVPLDLMAMNAQNEQVHVASWPGYFDDEISSRYYAIATQTFVLMTSSIYTEEMKEMICLTQEQRDYFETFKSGHTCIYGPDGEPISDMVPAETEGIAYAEIDVERVIDYKYYIDPAGHYSNQSLSMNFNQQPTPVVKQLYHQKNEVFTYEDIQYQHGILEEKV	18 monomers
cyanide hydratase from Gloeocercospora sorghi (enzyme, UniProt P32964 1-368, looked up) MPINKYKAAVVTSEPVWENLEGGVVKTIEFINEAGKAGCKLIAFPEVWIPGYPYWMWKVNYLQSLPMLKAYRENSIAMDSSEMRRIRAAARDNQIYVSIGVSEIDHATLYLTQVLISPLGDVINHRRKIKPTHVEKLVYGDGSGDSFEPVTQTEIGRLGQLNCWENMNPFLKSLAVARGEQIHVAAWPVYPDLSKQVHPDPATNYADPASDLVTPAYAIETGTWVLAPFQRISVEGLKRHTPPGVEPETDATPYNGHARIFRPDGSLYAKPAVDFDGLMYVDIDLNESHLTKALADFAGHYMRPDLIRLLVDTRRKELVTEVGGGDNGGIQSYSTMARLGLDRPLEEEDYRQGTDAGETEKASSNGHA	24 monomers
